Data on three variants can be found in IntAct's records for PubMed 20638386.

The labels stand for the following.
B1: Tubulin-folding cofactor A (Arabidopsis thaliana (Mouse-ear cress)), O04350 (parent)
chain: MATIRNLKIKTSTCKRIVKELHSYEKEVEREAAKTADMKDKGADPYDLKQQENVLGESRMMIPDCHKRLESALADLKSTLAELEETDEKEGPEIEDAKKTVADVEKQFPTEDA

The variants in the first experiment derive from B1. The conditions noted are these: with tbb9_arath TUBB9, P29517.
Chain of tbb9_arath TUBB9, P29517 (P29517 whole entry): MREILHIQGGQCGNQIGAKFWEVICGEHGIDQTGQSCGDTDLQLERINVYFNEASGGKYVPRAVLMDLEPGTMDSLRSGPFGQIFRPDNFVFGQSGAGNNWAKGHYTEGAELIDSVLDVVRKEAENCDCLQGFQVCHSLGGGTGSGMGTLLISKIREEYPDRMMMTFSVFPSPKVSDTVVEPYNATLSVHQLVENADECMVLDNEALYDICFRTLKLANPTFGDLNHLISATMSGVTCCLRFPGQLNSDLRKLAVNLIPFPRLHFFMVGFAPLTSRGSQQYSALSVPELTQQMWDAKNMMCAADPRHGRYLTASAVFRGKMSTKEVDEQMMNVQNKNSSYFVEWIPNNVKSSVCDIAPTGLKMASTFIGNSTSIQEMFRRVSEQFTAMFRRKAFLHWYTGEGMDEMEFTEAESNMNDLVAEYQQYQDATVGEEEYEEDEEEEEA
As for MATIRNLKIKTSTCKRIVKALHSYEKEVEREAAKTADMKDKGADPYDLKQQENVLGESRMMIPDCHKRLESALADLKSTLAELEETDEKEGPEIEDAKKTVADVEKQFPTEDA [E20A], the “effect of a mutation on the interaction” value is reported as “disrupting interaction”.

Variants of B1 are the subject of the next experiment. As to conditions: with tbb9_arath TUBB9, P29517. The source holds these as a separate data set.
As to MATIRNLKIKTSTCKRIVKELHSYEKEVEREAAKTADMKDKGADPYDLKQQENVLGASRMMIPDCHKRLESALADLKSTLAELEETDEKEGPEIEDAKKTVADVEKQFPTEDA [E57A], the “effect of a mutation on the interaction” value is reported as “disrupting interaction”.

In another experiment the parent is B1. As to conditions: with tbb9_arath TUBB9, P29517. This is another data set of the same source.
On to MATIRNLKIKTSTCKRIVKELHSAEKEVEREAAKTADMKDKGADPYDLKQQENVLGESRMMIPDCHKRLESALADLKSTLAELEETDEKEGPEIEDAKKTVADVEKQFPTEDA [Y24A], for which the “effect of a mutation on the interaction” value is “disrupting interaction”.
